Reference: the supplement of paper PMC7125110
± gives the standard error. For part of these data: Fewer inactive variants are shown than the library holds.

B1: glmS ribozyme (parent)
chain: AUAAAAGCGCCAGAACUACAGAAAUGUAGUUGACGAGGAGGAGGUUUAUCGAAUUUUCGGCGGAUGCCUCCAAA

Experiments:
Details in all cases: with glucosamine-6-phosphate
glucosamine-6-phosphate [1] = variants of: B1; assay: kcat; higher = faster cleavage; RNA array
Summary of the method: (§1)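 Barcoded ribozyme variants were transcribed in situ on sequenced MiSeq chips by E. coli RNA polymerase. At 37 °C, a hybridised Cy3 probe tracked them while glucosamine-6-phosphate (40 μM to 10 mM) in HEPES/KCl/Mg(OAc)2 buffer flowed in and tiles were imaged over ~14 h. Per-tile medians of signals normalised to baseline and to non-cleaving reference variants were fit to one- or two-exponential decays, giving kobs. kcat and KM came from weighted Michaelis–Menten fits across concentrations.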

glucosamine-6-phosphate [2] = variants of: B1; assay: self-cleavage kobs at 40 uM GlcN6P; higher = faster cleavage; RNA array
Summary of the method: as §1

glucosamine-6-phosphate [3] = variants of: B1; assay: self-cleavage kobs at 160 uM GlcN6P; higher = faster cleavage; RNA array
Summary of the method: as §1

glucosamine-6-phosphate [4] = variants of: B1; assay: self-cleavage kobs at 640 uM GlcN6P; higher = faster cleavage; RNA array
Summary of the method: as §1

glucosamine-6-phosphate [5] = variants of: B1; assay: KM; higher = weaker cofactor use; RNA array
Summary of the method: as §1

glucosamine-6-phosphate [6] = variants of: B1; assay: self-cleavage kobs at 2500 uM GlcN6P; higher = faster cleavage; RNA array
Summary of the method: as §1

glucosamine-6-phosphate [7] = variants of: B1; assay: self-cleavage kobs at 10000 uM GlcN6P; higher = faster cleavage; RNA array
Summary of the method: as §1

Variant	kcat (glucosamine-6-phosphate [1])	self-cleavage kobs at 40 uM GlcN6P (glucosamine-6-phosphate [2])	self-cleavage kobs at 160 uM GlcN6P (glucosamine-6-phosphate [3])	self-cleavage kobs at 640 uM GlcN6P (glucosamine-6-phosphate [4])	KM (glucosamine-6-phosphate [5])	self-cleavage kobs at 2500 uM GlcN6P (glucosamine-6-phosphate [6])	self-cleavage kobs at 10000 uM GlcN6P (glucosamine-6-phosphate [7])
G13C C68U	< 1e-05 s⁻¹	< 1e-05 s⁻¹	< 1e-05 s⁻¹	< 1e-05 s⁻¹			
A14C A15C	0.00204 ± 0.00038 s⁻¹	4.27e-05 ± 6.9e-06 s⁻¹	0.000103 ± 1.6e-05 s⁻¹	0.000339 ± 4.6e-05 s⁻¹	2740 ± 760 µM	0.0011 ± 0.00014 s⁻¹	0.00157 ± 0.00017 s⁻¹
A14C A15G	0.00631 ± 0.0025 s⁻¹	5.61e-05 ± 7.9e-06 s⁻¹	0.000127 ± 1.8e-05 s⁻¹	0.000597 ± 6.6e-05 s⁻¹	6250 ± 2900 µM	0.00192 ± 0.00022 s⁻¹	0.00369 ± 0.00064 s⁻¹
A12U G44A	0.00153 ± 0.00047 s⁻¹		8.78e-05 ± 1.3e-05 s⁻¹	0.000437 ± 5.9e-05 s⁻¹	2200 ± 960 µM	0.00103 ± 0.00013 s⁻¹	0.000973 ± 0.0002 s⁻¹
G13U C71A	0.000178 ± 1.7e-05 s⁻¹			5.95e-05 ± 1.2e-05 s⁻¹	1130 ± 300 µM	0.000151 ± 2.5e-05 s⁻¹	0.000154 ± 1.8e-05 s⁻¹
G13C U31A	0.000405 ± 2e-05 s⁻¹			7.16e-05 ± 1.3e-05 s⁻¹	3100 ± 280 µM	0.00017 ± 3.3e-05 s⁻¹	0.000314 ± 4.2e-05 s⁻¹
G13A A52G	6.74e-05 ± 2.2e-06 s⁻¹				1040 ± 140 µM	4.85e-05 ± 1.2e-05 s⁻¹	6.07e-05 ± 1.1e-05 s⁻¹
G13A G40C	5.83e-05 ± 8.4e-06 s⁻¹	< 1e-05 s⁻¹			2940 ± 1100 µM	2.55e-05 ± 7.4e-06 s⁻¹	4.56e-05 ± 9.9e-06 s⁻¹
G13A G40A	0.000179 ± 1.9e-05 s⁻¹				6100 ± 1200 µM	5.48e-05 ± 1.2e-05 s⁻¹	0.00011 ± 1.8e-05 s⁻¹
A12U G43C	1.4e-05 ± 1.4e-06 s⁻¹		< 1e-05 s⁻¹	< 1e-05 s⁻¹	6950 ± 1500 µM		
G13U C70G	4.04e-05 ± 3e-06 s⁻¹			4.63e-05 ± 9.7e-06 s⁻¹		3.94e-05 ± 6.3e-06 s⁻¹	3.71e-05 ± 6.7e-06 s⁻¹
G13U G59U C67U	1.71e-05 ± 6.1e-06 s⁻¹						
A12U U45A A53U	0.125 ± 0.042 s⁻¹	0.00437 ± 0.0009 s⁻¹			1100 ± 390 µM		
A12U A33U C67U	0.000242 ± 4.7e-05 s⁻¹				6520 ± 2600 µM		0.000146 ± 2.9e-05 s⁻¹
A12U A53C	0.0145 ± 0.006 s⁻¹	0.000569 ± 7.4e-05 s⁻¹		0.0051 ± 0.0014 s⁻¹		0.00439 ± 0.0022 s⁻¹	0.0183 ± 0.0027 s⁻¹
G13A U56G	0.000892 ± 0.0002 s⁻¹		4.73e-05 ± 9.8e-06 s⁻¹	0.000128 ± 1.8e-05 s⁻¹	3800 ± 1300 µM	0.000264 ± 5.9e-05 s⁻¹	0.000696 ± 8.2e-05 s⁻¹

Variant	kcat (glucosamine-6-phosphate [1])	self-cleavage kobs at 40 uM GlcN6P (glucosamine-6-phosphate [2])	self-cleavage kobs at 160 uM GlcN6P (glucosamine-6-phosphate [3])	self-cleavage kobs at 640 uM GlcN6P (glucosamine-6-phosphate [4])	KM (glucosamine-6-phosphate [5])	self-cleavage kobs at 2500 uM GlcN6P (glucosamine-6-phosphate [6])	self-cleavage kobs at 10000 uM GlcN6P (glucosamine-6-phosphate [7])
G13A U56C	0.000422 ± 7.9e-06 s⁻¹					8.37e-05 ± 2e-05 s⁻¹	0.00021 ± 3.7e-05 s⁻¹
A14C A53G C58A C70G	3.76e-05 ± 1.2e-05 s⁻¹		5.16e-05 ± 2e-05 s⁻¹				
A12U G66C	0.00201 ± 0.00014 s⁻¹	6.36e-05 ± 1.1e-05 s⁻¹		0.00058 ± 0.00016 s⁻¹	1270 ± 160 µM	0.00145 ± 0.00028 s⁻¹	0.00177 ± 0.00022 s⁻¹
A14C C70A	0.000106 ± 1.1e-05 s⁻¹		4.49e-05 ± 9.3e-06 s⁻¹	5.59e-05 ± 6.8e-06 s⁻¹	413 ± 170 µM	9.55e-05 ± 8e-06 s⁻¹	0.000102 ± 9.4e-06 s⁻¹
A14C U45G	0.00127 ± 0.00013 s⁻¹		6.63e-05 ± 1.5e-05 s⁻¹	0.000181 ± 2.6e-05 s⁻¹	3410 ± 600 µM	0.000606 ± 9.4e-05 s⁻¹	0.000933 ± 9.1e-05 s⁻¹
A12U A48G	0.000185 ± 3.6e-05 s⁻¹		2.8e-05 ± 1.2e-05 s⁻¹	9.16e-05 ± 1.3e-05 s⁻¹		0.000246 ± 3e-05 s⁻¹	0.000156 ± 1.5e-05 s⁻¹
G13U A36C	< 1e-05 s⁻¹						< 1e-05 s⁻¹
A14C G40C	0.000718 ± 6.3e-05 s⁻¹		2.58e-05 ± 1.1e-05 s⁻¹	0.000114 ± 1.8e-05 s⁻¹	3650 ± 530 µM	0.000285 ± 3.3e-05 s⁻¹	0.000533 ± 7.6e-05 s⁻¹
G13U U47G	0.000262 ± 5.2e-05 s⁻¹			4.72e-05 ± 7.2e-06 s⁻¹	2420 ± 890 µM	0.000158 ± 1.5e-05 s⁻¹	0.00019 ± 2.5e-05 s⁻¹
G13U U47C	7.04e-05 ± 3.2e-06 s⁻¹			2.85e-05 ± 1.2e-05 s⁻¹	1030 ± 150 µM	4.74e-05 ± 1.2e-05 s⁻¹	6.59e-05 ± 1.6e-05 s⁻¹
G13U U55G	0.00153 ± 0.00021 s⁻¹	2.48e-05 ± 7.6e-06 s⁻¹	6.37e-05 ± 8.5e-06 s⁻¹	0.000195 ± 2.5e-05 s⁻¹	3830 ± 780 µM	0.000643 ± 7.1e-05 s⁻¹	0.00109 ± 0.00011 s⁻¹
G13U A39C	0.000234 ± 2e-05 s⁻¹			2.78e-05 ± 6e-06 s⁻¹	4490 ± 600 µM	8.65e-05 ± 1e-05 s⁻¹	0.000158 ± 2.7e-05 s⁻¹
G13U A39G	0.00264 ± 0.00039 s⁻¹	5.19e-05 ± 1.1e-05 s⁻¹	0.000147 ± 3.4e-05 s⁻¹	0.000749 ± 0.00012 s⁻¹	2070 ± 520 µM	0.00177 ± 0.0003 s⁻¹	0.00208 ± 0.00023 s⁻¹
G13U A64G	0.00128 ± 0.00031 s⁻¹		4.62e-05 ± 1.2e-05 s⁻¹	0.000149 ± 1.9e-05 s⁻¹	4210 ± 1600 µM	0.000657 ± 6.9e-05 s⁻¹	0.000847 ± 8.3e-05 s⁻¹
G13C G66U	< 1e-05 s⁻¹		< 1e-05 s⁻¹		766 ± 350 µM		
